# Columns and labels:
# [1] = system: HeLa Kyoto; test: solubility change mitosis vs G1/S (difference of NP-40 vs SDS log2 ratios) (log2 ratio difference); higher = more soluble in mitosis
# [2] = system: HeLa Kyoto; test: solubility in G1/S (NP-40 vs SDS abundance) (log2 ratio); higher = more soluble; settings: cell cycle stage: G1/S
# [3] = system: HeLa Kyoto; test: melting temperature (median over replicates), in situ; higher = more thermally stable
# [4] = system: HeLa Kyoto; test: thermal stability score vs G1/S (z-score of summed log2 fold changes over temperatures); higher = more thermally stable than in G1/S
# [5] = cell cycle stage: early G1 (4.5 h after nocodazole release)
# 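For melting temperature (median over replicates), in situ in this document: HeLa Kyoto cells synchronized by double thymidine or nocodazole block, proteins quantified by TMT10plex mass spectrometry, three independent biological replicates.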
# 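For solubility change mitosis vs G1/S (difference of NP-40 vs SDS log2 ratios) in this document: synchronized HeLa Kyoto cells (double thymidine block for G1/S, nocodazole release for mitosis), protein amounts in NP-40 versus SDS lysates quantified by mass spectrometry, three biological replicates.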
# 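For solubility in G1/S (NP-40 vs SDS abundance) in this document: HeLa Kyoto cells arrested at G1/S by double thymidine block, proteins quantified by TMT10plex mass spectrometry in mild NP-40 versus SDS extracts, three biological replicates.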
# 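For thermal stability score vs G1/S (z-score of summed log2 fold changes over temperatures) in this document: synchronized HeLa Kyoto cells, proteins quantified by TMT10plex mass spectrometry, three biological replicates, mitosis taken 0.5 h after nocodazole release, G1/S directly after double thymidine block.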
Sequence,solubility change mitosis (log2) [1],solubility in G1/S (log2) [2],melting temperature ([3]; cell cycle stage: G1/S) [°C],melting temperature ([3]; cell cycle stage: mitosis) [°C],"thermal stability score [4, 5]",thermal stability score ([4]; cell cycle stage: mitosis)
MEAVAVAAAVGVLLLAGAGGAAGDEAREAAAVRALVARLLGPGPAADFSVSVERALAAKPGLDTYSLGGGGAARVRVRGSTGVAAAAGLHRYLRDFCGCHVAWSGSQLRLPRPLPAVPGELTEATPNRYRYYQNVCTQSYSFVWWDWARWEREIDWMALNGINLALAWSGQEAIWQRVYLALGLTQAEINEFFTGPAFLAWGRMGNLHTWDGPLPPSWHIKQLYLQHRVLDQMRSFGMTPVLPAFAGHVPEAVTRVFPQVNVTKMGSWGHFNCSYSCSFLLAPEDPIFPIIGSLFLRELIKEFGTDHIYGADTFNEMQPPSSEPSYLAAATTAVYEAMTAVDTEAVWLLQGWLFQHQPQFWGPAQIRAVLGAVPRGRLLVLDLFAESQPVYTRTASFQGQPFIWCMLHNFGGNHGLFGALEAVNGGPEAARLFPNSTMVGTGMAPEGISQNEVVYSLMAELGWRKDPVPDLAAWVTSFAARRYGVSHPDAGAAWRLLLRSVYNCSGEACRGHNRSPLVRRPSLQMNTSIWYNRSDVFEAWRLLLTSAPSLATSPAFRYDLLDLTRQAVQELVSLYYEEARSAYLSKELASLLRAGGVLAYELLPALDEVLASDSRFLLGSWLEQARAAAVSEAEADFYEQNSRYQLTLWGPEGNILDYANKQLAGLVANYYTPRWRLFLEALVDSVAQGIPFQQHQFDKNVFQLEQAFVLSKQRYPSQPRGDTVDLAKKIFLKYYPRWVAGSW [NAGLU],-0.238,0.341,55.7,55.5,-2.49,-1.73
MDLLQFLAFLFVLLLSGMGATGTLRTSLDPSLEIYKKMFEVKRREQLLALKNLAQLNDIHQQYKILDVMLKGLFKVLEDSRTVLTAADVLPDGPFPQDEKLKDAFSHVVENTAFFGDVVLRFPRIVHYYFDHNSNWNLLIRWGISFCNQTGVFNQGPHSPILSLMAQELGISEKDSNFQNPFKIDRTEFIPSTDPFQKALREEEKRRKKEEKRKEIRKGPRISRSQSEL [CCDC134],0.012,0.505,51.7,53.3,1.83,1.3
MAAQSAPKVVLKSTTKMSLNERFTNMLKNKQPTPVNIRASMQQQQQLASARNRRLAQQMENRPSVQAALKLKQSLKQRLGKSNIQARLGRPIGALARGAIGGRGLPIIQRGLPRGGLRGGRATRTLLRGGMSLRGQNLLRGGRAVAPRMGLRRGGVRGRGGPGRGGLGRGAMGRGGIGGRGRGMIGRGRGGFGGRGRGRGRGRGALARPVLTKEQLDNQLDAYMSKTKGHLDAELDAYMAQTDPETND [CHTOP],0.761,-0.246,51,51.7,-2.91,-0.126
MASGAYNPYIEIIEQPRQRGMRFRYKCEGRSAGSIPGEHSTDNNRTYPSIQIMNYYGKGKVRITLVTKNDPYKPHPHDLVGKDCRDGYYEAEFGQERRPLFFQNLGIRCVKKKEVKEAIITRIKAGINPFNVPEKQLNDIEDCDLNVVRLCFQVFLPDEHGNLTTALPPVVSNPIYDNRAPNTAELRICRVNKNCGSVRGGDEIFLLCDKVQKDDIEVRFVLNDWEAKGIFSQADVHRQVAIVFKTPPYCKAITEPVTVKMQLRRPSDQEVSESMDFRYLPDEKDTYGNKAKKQKTTLLFQKLCQDHVETGFRHVDQDGLELLTSGDPPTLASQSAGITVNFPERPRPGLLGSIGEGRYFKKEPNLFSHDAVVREMPTGVSSQAESYYPSPGPISSGLSHHASMAPLPSSSWSSVAHPTPRSGNTNPLSSFSTRTLPSNSQGIPPFLRIPVGNDLNASNACIYNNADDIVGMEASSMPSADLYGISDPNMLSNCSVNMMTTSSDSMGETDNPRLLSMNLENPSCNSVLDPRDLRQLHQMSSSSMSAGANSNTTVFVSQSDAFEGSDFSCADNSMINESGPSNSTNPNSHGFVQDSQYSGIGSMQNEQLSDSFPYEFFQV [REL],-0.0913,-0.0913,49.5,50.5,-0.962,-0.219
MAGKKVLIVYAHQEPKSFNGSLKNVAVDELSRQGCTVTVSDLYAMNLEPRATDKDITGTLSNPEVFNYGVETHEAYKQRSLASDITDEQKKVREADLVIFQFPLYWFSVPAILKGWMDRVLCQGFAFDIPGFYDSGLLQGKLALLSVTTGGTAEMYTKTGVNGDSRYFLWPLQHGTLHFCGFKVLAPQISFAPEIASEEERKGMVAAWSQRLQTIWKEEPIPCTAHWHFGQ [NQO2],-0.0114,0.396,59,62,-1.69,-2.35
MGKSESQMDITDINTPKPKKKQRWTPLEISLSVLVLLLTIIAVTMIALYATYDDGICKSSDCIKSAARLIQNMDATTEPCTDFFKYACGGWLKRNVIPETSSRYGNFDILRDELEVVLKDVLQEPKTEDIVAVQKAKALYRSCINESAIDSRGGEPLLKLLPDIYGWPVATENWEQKYGASWTAEKAIAQLNSKYGKKVLINLFVGTDDKNSVNHVIHIDQPRLGLPSRDYYECTGIYKEACTAYVDFMISVARLIRQEERLPIDENQLALEMNKVMELEKEIANATAKPEDRNDPMLLYNKMTLAQIQNNFSLEINGKPFSWLNFTNEIMSTVNISITNEEDVVVYAPEYLTKLKPILTKYSARDLQNLMSWRFIMDLVSSLSRTYKESRNAFRKALYGTTSETATWRRCANYVNGNMENAVGRLYVEAAFAGESKHVVEDLIAQIREVFIQTLDDLTWMDAETKKRAEEKALAIKERIGYPDDIVSNDNKLNNEYLELNYKEDEYFENIIQNLKFSQSKQLKKLREKVDKDEWISGAAVVNAFYSSGRNQIVFPAGILQPPFFSAQQSNSLNYGGIGMVIGHEITHGFDDNGRNFNKDGDLVDWWTQQSASNFKEQSQCMVYQYGNFSWDLAGGQHLNGINTLGENIADNGGLGQAYRAYQNYIKKNGEEKLLPGLDLNHKQLFFLNFAQVWCGTYRPEYAVNSIKTDVHSPGNFRIIGTLQNSAEFSEAFHCRKNSYMNPEKKCRVW [MME],-0.0403,-0.0691,53,55.9,-0.835,-0.832
MMPTPVILLKEGTDSSQGIPQLVSNISACQVIAEAVRTTLGPRGMDKLIVDGRGKATISNDGATILKLLDVVHPAAKTLVDIAKSQDAEVGDGTTSVTLLAAEFLKQVKPYVEEGLHPQIIIRAFRTATQLAVNKIKEIAVTVKKADKVEQRKLLEKCAMTALSSKLISQQKAFFAKMVVDAVMMLDDLLQLKMIGIKKVQGGALEDSQLVAGVAFKKTFSYAGFEMQPKKYHNPKIALLNVELELKAEKDNAEIRVHTVEDYQAIVDAEWNILYDKLEKIHHSGAKVVLSKLPIGDVATQYFADRDMFCAGRVPEEDLKRTMMACGGSIQTSVNALSADVLGRCQVFEETQIGGERYNFFTGCPKAKTCTFILRGGAEQFMEETERSLHDAIMIVRRAIKNDSVVAGGGAIEMELSKYLRDYSRTIPGKQQLLIGAYAKALEIIPRQLCDNAGFDATNILNKLRARHAQGGTWYGVDINNEDIADNFEAFVWEPAMVRINALTAASEAACLIVSVDETIKNPRSTVDAPTAAGRGRGRGRPH [CCT7],-0.0678,0.162,54.1,54.2,-0.684,-1.22
MDRTCEERPAEDGSDEEDPDSMEAPTRIRDTPEDIVLEAPASGLAFHPARDLLAAGDVDGDVFVFSYSCQEGETKELWSSGHHLKACRAVAFSEDGQKLITVSKDKAIHVLDVEQGQLERRVSKAHGAPINSLLLVDENVLATGDDTGGICLWDQRKEGPLMDMRQHEEYIADMALDPAKKLLLTASGDGCLGIFNIKRRRFELLSEPQSGDLTSVTLMKWGKKVACGSSEGTIYLFNWNGFGATSDRFALRAESIDCMVPVTESLLCTGSTDGVIRAVNILPNRVVGSVGQHTGEPVEELALSHCGRFLASSGHDQRLKFWDMAQLRAVVVDDYRRRKKKGGPLRALSSKTWSTDDFFAGLREEGEDSMAQEEKEETGDDSD [WDR55],-0.0465,-0.0916,51.3,51.4,-0.454,-1.73

# Source: the supplement of paper PMC5998384
